# Data published in US6869778.
# Substitutions are numbered along the chain they refer to. Names and notes keep the numbering of the source. Values joined by “and” are separate entries in the source; they are usually repeats but may differ in a detail not shown here. Equal entries are not always repeated.
# T1: lys-plasminogen, P00747
# T1 chain: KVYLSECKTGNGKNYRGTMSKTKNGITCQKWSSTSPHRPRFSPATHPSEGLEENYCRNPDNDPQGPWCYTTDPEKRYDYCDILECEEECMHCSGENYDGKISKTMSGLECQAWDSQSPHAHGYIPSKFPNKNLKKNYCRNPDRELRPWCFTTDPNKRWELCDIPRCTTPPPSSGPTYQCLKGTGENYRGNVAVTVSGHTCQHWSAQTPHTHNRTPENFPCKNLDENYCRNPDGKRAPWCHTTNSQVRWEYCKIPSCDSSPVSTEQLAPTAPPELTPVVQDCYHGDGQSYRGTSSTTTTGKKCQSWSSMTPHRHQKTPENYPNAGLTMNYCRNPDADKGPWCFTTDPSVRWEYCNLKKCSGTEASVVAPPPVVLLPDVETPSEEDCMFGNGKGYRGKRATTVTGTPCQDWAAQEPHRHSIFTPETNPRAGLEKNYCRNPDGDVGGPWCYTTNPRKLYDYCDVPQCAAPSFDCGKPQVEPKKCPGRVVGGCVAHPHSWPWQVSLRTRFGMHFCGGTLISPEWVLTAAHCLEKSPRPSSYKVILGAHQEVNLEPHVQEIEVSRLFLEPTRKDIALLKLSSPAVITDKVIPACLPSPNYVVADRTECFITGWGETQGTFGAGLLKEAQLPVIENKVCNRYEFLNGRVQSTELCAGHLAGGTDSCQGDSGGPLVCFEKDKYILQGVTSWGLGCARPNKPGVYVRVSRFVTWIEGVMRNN
# B1: wild type human t-PA, two-chain form (protein)
# chain 1: SYQVICRDEKTQMIYQQHQSWLRPVLRSNRVEYCWCNSGRAQCHSVPVKSCSEPRCFNGGTCQQALYFSDFVCQCPEGFAGKCCEIDTRATCYEDQGISYRGTWSTAESGAECTNWNSSALAQKPYSGRRPDAIRLGLGNHNYCRNPDRDSKPWCYVFKAGKYSSEFCSTPACSEGNSDCYFGNGSAYRGTHSLTESGASCLPWNSMILIGKVYTAQNPSAQALGLGKHNYCRNPDGDAKPWCHVLKNRRLTWEYCDVPSCSTCGLRQYSQPQFR
# chain 2: IKGGLFADIASHPWQAAIFAKHRRSPGERFLCGGILISSCWILSAAHCFQERFPPHHLTVILGRTYRVVPGEEEQKFEVEKYIVHKEFDDDTYDNDIALLQLKSDSSRCAQESSVVRTVCLPPADLQLPDWTECELSGYGKHEALSPFYSERLKEAHVRLYPSSRCTSQHLLNRTVTDNMLCAGDTRSGGPQANLHDACQGDSGGPLVCLNDGRMTLVGIISWGLGCGQKDVPGVYTKVTNYLDWIRDNMRP
# B2: t-PA/K429Y, two-chain form (protein)
# chain 1: B1 chain 1
# chain 2: B1 chain 2 with K154Y
# B3: t-PA/R275E, single-chain form (protein)
# chain: SYQVICRDEKTQMIYQQHQSWLRPVLRSNRVEYCWCNSGRAQCHSVPVKSCSEPRCFNGGTCQQALYFSDFVCQCPEGFAGKCCEIDTRATCYEDQGISYRGTWSTAESGAECTNWNSSALAQKPYSGRRPDAIRLGLGNHNYCRNPDRDSKPWCYVFKAGKYSSEFCSTPACSEGNSDCYFGNGSAYRGTHSLTESGASCLPWNSMILIGKVYTAQNPSAQALGLGKHNYCRNPDGDAKPWCHVLKNRRLTWEYCDVPSCSTCGLRQYSQPQFEIKGGLFADIASHPWQAAIFAKHRRSPGERFLCGGILISSCWILSAAHCFQERFPPHHLTVILGRTYRVVPGEEEQKFEVEKYIVHKEFDDDTYDNDIALLQLKSDSSRCAQESSVVRTVCLPPADLQLPDWTECELSGYGKHEALSPFYSERLKEAHVRLYPSSRCTSQHLLNRTVTDNMLCAGDTRSGGPQANLHDACQGDSGGPLVCLNDGRMTLVGIISWGLGCGQKDVPGVYTKVTNYLDWIRDNMRP
# B4: t-PA/H417E, two-chain form (protein)
# chain 1: B1 chain 1
# chain 2: B1 chain 2 with H142E
# B5: t-PA/H417D, two-chain form (protein)
# chain 1: B1 chain 1
# chain 2: B1 chain 2 with H142D
# B6: t-PA/R275E,H417D, single-chain form (protein)
# chain: B3 chain with H417D
# B7: t-PA/R275E,H417E, single-chain form (protein)
# chain: B3 chain with H417E
# Biological target: stimulatory thirteen amino acid peptide P368
row,Protein,stimulation of plasminogen activation by co-factor (indirect chromogenic assay)
1,B1,strongly stimulated
2,B2,strongly stimulated
3,B3,moderately

# Biological target: T1, lys-plasminogen, P00747
Protein,Kcat of plasminogen activation in the absence of a cofactor,Kcat of plasminogen activation in the presence of fibrin,Kcat/Km of plasminogen activation in the absence of a cofactor,Kcat/Km of plasminogen activation in the presence of fibrin,Km of plasminogen activation in the absence of a cofactor,Km of plasminogen activation in the presence of fibrin,"fold difference of activity toward plasminogen without co-factor, against two-chain t-PA",percent of the activity of two-chain t-PA toward plasminogen in the presence of fibrin,"fold reduction of activity toward plasminogen without co-factor, against single chain t-PA/R275E"
B1,0.093 s⁻¹ and 0.16 s⁻¹,0.11 s⁻¹ and 0.08 s⁻¹,14000 M⁻¹ s⁻¹ and 16000 M⁻¹ s⁻¹,6.5e+06 M⁻¹ s⁻¹ and 4e+06 M⁻¹ s⁻¹,6.7 µM and 10 µM,0.017 µM and 0.02 µM,,,
B4,0.099 s⁻¹,0.1 s⁻¹,11000 M⁻¹ s⁻¹,4.5e+06 M⁻¹ s⁻¹,8.7 µM,0.022 µM,,,
B2,0.18 s⁻¹,0.08 s⁻¹,13000 M⁻¹ s⁻¹,3e+06 M⁻¹ s⁻¹,14 µM,0.03 µM,differed by a factor of only 1.2,approximately 75% of the activity of two-chain t-PA,
B5,0.11 s⁻¹,0.11 s⁻¹,16000 M⁻¹ s⁻¹,4.6e+06 M⁻¹ s⁻¹,6.8 µM,0.024 µM,,,
B3,0.014 s⁻¹ and 0.038 s⁻¹,0.16 s⁻¹ and 0.1 s⁻¹,1500 M⁻¹ s⁻¹ and 1300 M⁻¹ s⁻¹,9.4e+06 M⁻¹ s⁻¹ and 5e+06 M⁻¹ s⁻¹,,0.017 µM and 0.02 µM,,,
B6,0.001 s⁻¹,0.23 s⁻¹,110 M⁻¹ s⁻¹,5.3e+06 M⁻¹ s⁻¹,9.4 µM,0.043 µM,,,"reduced by a factor of approximately 14 or 6, respectively"
B7,0.002 s⁻¹,0.17 s⁻¹,240 M⁻¹ s⁻¹,6.1e+06 M⁻¹ s⁻¹,8.5 µM,0.028 µM,,,"reduced by a factor of approximately 14 or 6, respectively"

# Biological target: soluble fibrin monomers (DESAFIB)
Protein,Fold stimulation of kcat/Km by fibrin,fibrin selectivity factor (specific activity in the presence of fibrin over that in the presence of fibrinogen),stimulation of plasminogen activation by co-factor (indirect chromogenic assay)
B1,460 fold and 250 fold,1.5 for two-chain t-PA,strongly stimulated
B4,410 fold,,
B2,230 fold,1.5 for two-chain t-PA/K429Y,strongly stimulated
B5,290 fold,,
B3,6300 fold and 3800 fold,1.0 for single chain t-PA/R275E,stimulated strongly
B6,48200 fold,,
B7,25400 fold,,

# Biological target: fibrinogen
row,Protein,stimulation of plasminogen activation by co-factor (indirect chromogenic assay)
1,B1,strongly stimulated
2,B2,strongly stimulated
3,B3,stimulated strongly
